Tests used:
[1] = target: TCR Vβ17 on T cells of PBMCs; assay: flow cytometry on PBMCs, percent of cells stained
[2] = target: Vβ17 (on cells expressing Vβ17); assay: cell-based or functional assay
Chain of Vβ17 (on cells expressing Vβ17) (A0A075B6N1 22-114): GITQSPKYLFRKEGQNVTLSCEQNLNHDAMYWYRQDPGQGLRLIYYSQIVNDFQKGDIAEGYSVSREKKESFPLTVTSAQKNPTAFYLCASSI

Chain of TCR Vβ17 on T cells of PBMCs (A0A075B6N1 22-114): as above

| PBMC binding (%) [1] [%] | Cell Internalization (EC50) [2] [nM] | Substance |
| --- | --- | --- |
| 3.4 | < 0.07 | Anti TCR Vβ17-PE Ab, Beckman Coulter, Cat: IM2048 (antibody) |
| 0.13 |  | Goat anti mouse IgG PE, Southern Biotech, Cat: 1030-09 (antibody) |

From US20250092134A1
